How the values were obtained:
SLAMF9 protein = SLAMF9 protein (UniProt Q96A28 19-236, limits assumed); assay: phage clone on SLAMF9 protein
[1] = target: T1, FcRL1, overexpressed on 3T3 cells (UniProt Q96LA6 17-429, limits assumed); assay: phage clone on 3T3-FcRL1 cells
T1 construct: whole, on cells
T1 sequence (looked up): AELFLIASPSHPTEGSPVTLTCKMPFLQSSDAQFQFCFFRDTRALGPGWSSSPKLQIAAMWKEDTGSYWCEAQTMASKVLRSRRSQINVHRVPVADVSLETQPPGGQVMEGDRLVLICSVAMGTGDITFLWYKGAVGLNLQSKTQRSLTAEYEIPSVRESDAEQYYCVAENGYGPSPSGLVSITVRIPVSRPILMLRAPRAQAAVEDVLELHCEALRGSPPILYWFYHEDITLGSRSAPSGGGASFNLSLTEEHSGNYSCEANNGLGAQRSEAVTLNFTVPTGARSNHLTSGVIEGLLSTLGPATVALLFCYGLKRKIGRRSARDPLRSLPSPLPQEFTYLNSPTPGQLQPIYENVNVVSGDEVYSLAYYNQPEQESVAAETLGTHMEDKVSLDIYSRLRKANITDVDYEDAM

[2] = target: T2, FcRL2, overexpressed on 3T3 cells (UniProt Q96LA5 20-508, limits assumed); assay: phage clone on 3T3-FcRL2 cells
T2 construct: whole, on cells
T2 sequence (looked up): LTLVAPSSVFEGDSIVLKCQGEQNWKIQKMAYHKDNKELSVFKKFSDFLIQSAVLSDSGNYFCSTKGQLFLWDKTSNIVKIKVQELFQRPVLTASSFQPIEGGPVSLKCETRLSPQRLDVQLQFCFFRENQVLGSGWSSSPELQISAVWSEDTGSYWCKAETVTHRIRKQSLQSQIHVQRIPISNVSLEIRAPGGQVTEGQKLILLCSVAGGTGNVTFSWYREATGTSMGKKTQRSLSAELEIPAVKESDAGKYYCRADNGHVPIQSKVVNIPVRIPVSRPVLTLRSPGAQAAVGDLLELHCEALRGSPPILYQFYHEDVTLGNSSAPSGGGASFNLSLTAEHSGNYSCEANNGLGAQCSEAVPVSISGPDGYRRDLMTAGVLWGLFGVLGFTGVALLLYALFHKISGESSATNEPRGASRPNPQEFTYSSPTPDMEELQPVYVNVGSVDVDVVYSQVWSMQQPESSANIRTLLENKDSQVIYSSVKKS

[3] = target: T3, FcRL4, overexpressed on 3T3 cells (UniProt Q96PJ5 20-515, limits assumed); assay: phage clone on 3T3-FcRL4 cells
T3 construct: whole, on cells
T3 sequence (looked up): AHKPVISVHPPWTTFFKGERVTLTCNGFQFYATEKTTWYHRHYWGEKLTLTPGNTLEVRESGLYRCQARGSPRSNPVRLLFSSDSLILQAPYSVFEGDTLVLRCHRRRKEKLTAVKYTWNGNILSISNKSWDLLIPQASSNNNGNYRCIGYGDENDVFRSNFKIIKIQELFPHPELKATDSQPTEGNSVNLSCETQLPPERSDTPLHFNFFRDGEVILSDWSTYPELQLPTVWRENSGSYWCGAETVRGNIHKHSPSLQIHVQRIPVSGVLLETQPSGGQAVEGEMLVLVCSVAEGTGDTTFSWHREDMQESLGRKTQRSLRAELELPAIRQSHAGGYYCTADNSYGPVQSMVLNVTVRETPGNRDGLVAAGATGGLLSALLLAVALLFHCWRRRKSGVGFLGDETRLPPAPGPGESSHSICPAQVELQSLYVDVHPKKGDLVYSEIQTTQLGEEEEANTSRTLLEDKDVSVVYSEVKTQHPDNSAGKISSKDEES

[4] = target: T4, Fc Receptor-like 5 (FcRL5), full length, overexpressed on 3T3 or Raji cells (human, UniProt Q96RD9 16-977); assay: phage clone screening on cells
T4 construct: also called 3T3-FcRL5
T4 sequence: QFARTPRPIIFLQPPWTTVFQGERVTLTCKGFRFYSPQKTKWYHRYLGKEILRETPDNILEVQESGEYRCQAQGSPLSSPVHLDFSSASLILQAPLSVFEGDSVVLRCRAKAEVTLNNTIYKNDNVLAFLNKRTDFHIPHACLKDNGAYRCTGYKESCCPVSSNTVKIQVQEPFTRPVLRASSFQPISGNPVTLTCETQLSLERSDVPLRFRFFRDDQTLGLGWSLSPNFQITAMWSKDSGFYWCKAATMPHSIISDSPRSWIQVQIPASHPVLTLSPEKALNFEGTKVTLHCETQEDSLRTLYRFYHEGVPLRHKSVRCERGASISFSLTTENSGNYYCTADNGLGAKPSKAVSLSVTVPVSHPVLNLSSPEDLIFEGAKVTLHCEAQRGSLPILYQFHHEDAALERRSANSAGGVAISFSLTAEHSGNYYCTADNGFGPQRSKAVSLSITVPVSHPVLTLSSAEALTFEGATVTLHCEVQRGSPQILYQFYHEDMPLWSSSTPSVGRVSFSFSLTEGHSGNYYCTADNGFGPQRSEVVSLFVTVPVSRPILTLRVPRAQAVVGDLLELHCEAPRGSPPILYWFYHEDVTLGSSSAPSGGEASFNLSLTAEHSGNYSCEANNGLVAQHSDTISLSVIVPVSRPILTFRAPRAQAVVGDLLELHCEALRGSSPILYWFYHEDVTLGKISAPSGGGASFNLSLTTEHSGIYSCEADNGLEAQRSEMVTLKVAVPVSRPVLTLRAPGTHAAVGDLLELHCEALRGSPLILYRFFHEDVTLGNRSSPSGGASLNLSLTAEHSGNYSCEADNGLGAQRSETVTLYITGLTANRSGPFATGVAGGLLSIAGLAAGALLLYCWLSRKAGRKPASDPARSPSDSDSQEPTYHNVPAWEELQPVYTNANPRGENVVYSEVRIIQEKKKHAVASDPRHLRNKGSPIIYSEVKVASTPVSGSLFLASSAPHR
Summary of the method: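 scFv phage clones were incubated with live 3T3 cells overexpressing full-length FcRL5, then detected with mouse anti-M13 mAb and PE-anti-mouse Ig by flow cytometry. 3T3 cells expressing FcRL1, 2, 3, 4 or 6 served as negative-control targets.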

Chain of SLAMF9 protein (Q96A28 19-236 limits assumed): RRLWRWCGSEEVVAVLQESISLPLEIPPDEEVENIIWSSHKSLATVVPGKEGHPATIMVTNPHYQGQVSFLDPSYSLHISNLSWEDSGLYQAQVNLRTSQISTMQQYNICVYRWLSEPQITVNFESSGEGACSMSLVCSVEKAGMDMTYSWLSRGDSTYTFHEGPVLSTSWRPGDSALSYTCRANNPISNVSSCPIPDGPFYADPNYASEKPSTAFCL

B1: ET200-007 (scFv)
scFv: SYVLTQPLSVSVAPGKTARITCGGNNIGSKTVHWYQQKPGQAPVLVIYYDSDRPSGIPERFSGSNSGNTATLTISRVEAGDEADYYCQVWDSSSDHRVFGGGTKLTVLGSRGGGGSGGGGSGGGGSLEMAQVQLQESGPGLVKPSETLSLTCNVSGYSISSGYFWGWIRQPPGKGLEWIGSIYHSRSTYYNPSLKSRVTISVDTSKNQFSLKLNSVTAADTAVYYCARGYGYFDYWGQGTLVTVSSTSGQAGQHHHHHHGAYPYDVPDYAS
notes: screened as phage clone; entry is VL-linker-VH-His tag-HA tag
- binding result (SLAMF9 protein): no binding
- binding result [1]: no binding
- binding result [2]: no binding
- binding result [3]: no binding
- binding result [4]: binds

B2: ET200-109 (scFv)
scFv: LPVLTQPPSASATPGQRVTISCSGTTSNIGSNTVHWYQQLPGTAPKLLIYNNNQRPSGVPDRFSGSKSGTSASLAISGLRSEDEATYSCATWDDSLSGVVFGGGTKLTVLGSRGGGGSGGGGSGGGGSLEMAEVQLVQSGAEVKKPGSSVKVSCKASGGTFSSYAISWVRQAPGQGLEWMGGIIPIFGTANYAQKFQGRVTITADESTSTAYMELSSLRSEDTAVYYCARDPAYGDYEYDAFDIWGQGTMVTVSSTSGQAGQHHHHHHGAYPYDVPDYAS
notes: as for B1
- binding result (SLAMF9 protein): no binding
- binding result [1]: no binding
- binding result [2]: no binding
- binding result [3]: no binding
- binding result [4]: binds

B3: ET200-108 (scFv)
scFv: QSVLTQPPSVSAPPGQKVTISCSGSSSNIGNNYVSWYQQFPGTAPKLLIYDNNKRPSGISDRFSGSKSGTSATLGIAGLQTGDEADYYCGTWDTSLSGFYVFGSGTKVTVLGSRGGGGSGGGGSGGGGSLEMAEVQLVQSGAEVKKPGASVKVSCKASGYTFTSYTISWVRQAPGQGLEWMGWISTYNGLTNYAQNLQGRVTMTTDTFTTTAYMELRSLRSDDTAVYYCVREGSPDYGDFASFDYWGQGTLVTVSSTSGQAGQHHHHHHGAYPYDVPDYAS
notes: as for B1
- binding result (SLAMF9 protein): no binding
- binding result [1]: no binding
- binding result [2]: no binding
- binding result [3]: no binding
- binding result [4]: binds

B4: ET200-106 (scFv)
scFv: SYELTQPPAASGTPGQRVTISCSGGVSNIGSGALNWYQQLPGTAPKLLIYSYNQRPSGVSDRFSGSRSATSASLAISGLQSEDEADYYCATWDDSVNGWVFGGGTKLTVLGSRGGGGSGGGGSGGGGSLEMAEVQLVESGAEVKKPGDSVKVSCKPSGYNFLNYGINWVRQAPGQGLEWMGWISTYTGNTNYAQKLQGRVTFTTDTSTSTAYMEMRSLRSDDTAVYYCARQQGGGWYDVWGQGTLVTVSSTSGQAGQHHHHHHGAYPYDVPDYAS
notes: as for B1
- binding result (SLAMF9 protein): no binding
- binding result [1]: no binding
- binding result [2]: no binding
- binding result [3]: no binding
- binding result [4]: binds

B5: ET200-102 (scFv)
scFv: QSVVTQPPSVSAAPGQKVTISCSGSSSNIGNNYVSWYQQLPGTAPKLLIYDNNKRPSGIPDRFSGSKSGTSATLGITGLQTGDEADYYCGTWDSSLSAYVFGTGTKVTVLGSRGGGGSGGGGSGGGGSLEMAQVQLVQSGAEVKKPGASVKVSCKASGYTFTNYALHWVRQAPGQGLEWMAWINGGNGNTKYSQNFQGRVTITRDTSASTAYMELSSLRSEDTAVYYCAKPEETAGTIHFDYWGQGTPVTVSSTSGQAGQHHHHHHGAYPYDVPDYAS
notes: as for B1
- binding result (SLAMF9 protein): no binding
- binding result [1]: no binding
- binding result [2]: no binding
- binding result [3]: no binding
- binding result [4]: binds

B6: ET200-105 (scFv)
scFv: SYVLTQPPSVSVSPGQTASITCSGDRLTNKYVSWYQQKPGQSPVLVIYEDAKRPSGIPARFSGSNSGNTATLTISGTQAMDESEYYCQAWDSSVVVFGGGTKLTVLGSRGGGGSGGGGSGGGGSLEMAEVQLVESGGGLVQPGRSLRLSCAASGFTFDDYAMHWVRQAPGKGLEWVSGISWNSGSIGYADSVKGRFTISRDNAKNSLYLQMNSLRDEDTALYYCAKDRGGGVIVKDAFDIWGQGTMVTVSSTSGQAGQHHHHHHGAYPYDVPDYAS
notes: as for B1
- binding result (SLAMF9 protein): no binding
- binding result [1]: no binding
- binding result [2]: no binding
- binding result [3]: no binding
- binding result [4]: binds

B7: ET200-103 (scFv)
scFv: QAVLTQPHSVSESPGKTVTISCTRSSGSIASNYVQWYQQRPGSAPTTVIYEDNQRPSGVPDRFSGSIDSSSNSASLTISGLKTEDEADYYCQSYDSTITVFGGGTKLTVLGSRGGGGSGGGGSGGGGSLEMAQVQLVQSGAEVKKPGSSVKVSCKASGGTFSSYAISWVRQAPGQGLEWMGGIIPIFGTANYAQKFQGRVTITADESTSTAYMELSSLRSEDTAVYYCAGEGYYDSSGYSNGDAFDIWGQGTMVTVSSTSGQAGQHHHHHHGAYPYDVPDYAS
notes: as for B1
- binding result (SLAMF9 protein): no binding
- binding result [1]: no binding
- binding result [2]: no binding
- binding result [3]: no binding
- binding result [4]: binds

B8: ET200-107 (scFv)
scFv: QSVVTQPPSVSAAPGEKVTISCSGSNFNVGNNDVSWYQQLPGAAPKLLIYDNNKRPSGIPDRFSGSKSGTSATLDITGLHSDDEADYYCGTWDSSLNTGGVFGTGTKVTVLGSRGGGGSGGGGSGGGGSLEMAEVQLVQSGAEVKKPGASVKVSCKASGYTFTSYTISWVRQAPGQGLEWMGWISTYNGLTNYAQNLQGRVTMTTDTFTTTAYMELRSLRSDDTAVYYCVREGSPDYGDFASFDYWGQGTLVTVSSTSGQAGQHHHHHHGAYPYDVPDYAS
notes: as for B1
- binding result (SLAMF9 protein): no binding
- binding result [1]: no binding
- binding result [2]: no binding
- binding result [3]: no binding
- binding result [4]: binds
